Experimental data reported in the supplement of paper PMC5998384.

Experiments:
[1] = tested on: HeLa Kyoto; experiment: melting temperature (median over replicates), in situ; higher = more thermally stable
[2] = tested on: HeLa Kyoto; experiment: solubility change mitosis vs G1/S (difference of NP-40 vs SDS log2 ratios) (log2 ratio difference); higher = more soluble in mitosis
[3] = tested on: HeLa Kyoto; experiment: thermal stability score vs G1/S (z-score of summed log2 fold changes over temperatures); higher = more thermally stable than in G1/S
[4] = tested on: HeLa Kyoto; experiment: solubility in G1/S (NP-40 vs SDS abundance) (log2 ratio); higher = more soluble; details: cell cycle stage: G1/S
[5] = cell cycle stage: early G1 (4.5 h after nocodazole release)
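Wherever melting temperature (median over replicates), in situ is given: HeLa Kyoto cells synchronized by double thymidine or nocodazole block, proteins quantified by TMT10plex mass spectrometry, three independent biological replicates.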
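Wherever solubility change mitosis vs G1/S (difference of NP-40 vs SDS log2 ratios) is given: synchronized HeLa Kyoto cells (double thymidine block for G1/S, nocodazole release for mitosis), protein amounts in NP-40 versus SDS lysates quantified by mass spectrometry, three biological replicates.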
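Wherever solubility in G1/S (NP-40 vs SDS abundance) is given: HeLa Kyoto cells arrested at G1/S by double thymidine block, proteins quantified by TMT10plex mass spectrometry in mild NP-40 versus SDS extracts, three biological replicates.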
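Wherever thermal stability score vs G1/S (z-score of summed log2 fold changes over temperatures) is given: synchronized HeLa Kyoto cells, proteins quantified by TMT10plex mass spectrometry, three biological replicates, mitosis taken 0.5 h after nocodazole release, G1/S directly after double thymidine block.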

| Sequence | melting temperature ([1]; cell cycle stage: G1/S) | melting temperature ([1]; cell cycle stage: mitosis) | solubility change mitosis (log2) [2] | thermal stability score [3, 5] | thermal stability score ([3]; cell cycle stage: mitosis) | solubility in G1/S (log2) [4] |
| --- | --- | --- | --- | --- | --- | --- |
| MATAAYEQLKLHITPEKFYVEACDDGADDVLTIDRVSTEVTLAVKKDVPPSAVTRPIFGILGTIHLVAGNYLIVITKKIKVGEFFSHVVWKATDFDVLSYKKTMLHLTDIQLQDNKTFLAMLNHVLNVDGFYFSTTYDLTHTLQRLSNTSPEFQEMSLLERADQRFVWNGHLLRELSAQPEVHRFALPVLHGFITMHSCSINGKYFDWILISRRSCFRAGVRYYVRGIDSEGHAANFVETEQIVHYNGSKASFVQTRGSIPVFWSQRPNLKYKPLPQISKVANHMDGFQRHFDSQVIIYGKQVIINLINQKGSEKPLEQTFATMVSSLGSGMMRYIAFDFHKECKNMRWDRLSILLDQVAEMQDELSYFLVDSAGQVVANQEGVFRSNCMDCLDRTNVIQSLLARRSLQAQLQRLGVLHVGQKLEEQDEFEKIYKNAWADNANACAKQYAGTGALKTDFTRTGKRTHLGLIMDGWNSMIRYYKNNFSDGFRQDSIDLFLGNYSVDELESHSPLSVPRDWKFLALPIIMVVAFSMCIICLLMAGDTWTETLAYVLFWGVASIGTFFIILYNGKDFVDAPRLVQKEKID [SACM1L] | 50.7 °C | 50.7 °C | -0.111 | 1.77 | 2.34 | -0.172 |
| MATANFGKIQIGIYVEIKRSDGRIHQAMVTSLNEDNESVTVEWIENGDTKGKEIDLESIFSLNPDLVPDEEIEPSPETPPPPASSAKVNKIVKNRRTVASIKNDPPSRDNRVVGSARARPSQFPEQSSSAQQNGSVSDISPVQAAKKEFGPPSRRKSNCVKEVEKLQEKREKRRLQQQELREKRAQDVDATNPNYEIMCMIRDFRGSLDYRPLTTADPIDEHRICVCVRKRPLNKKETQMKDLDVITIPSKDVVMVHEPKQKVDLTRYLENQTFRFDYAFDDSAPNEMVYRFTARPLVETIFERGMATCFAYGQTGSGKTHTMGGDFSGKNQDCSKGIYALAARDVFLMLKKPNYKKLELQVYATFFEIYSGKVFDLLNRKTKLRVLEDGKQQVQVVGLQEREVKCVEDVLKLIDIGNSCRTSGQTSANAHSSRSHAVFQIILRRKGKLHGKFSLIDLAGNERGADTSSADRQTRLEGAEINKSLLALKECIRALGRNKPHTPFRASKLTQVLRDSFIGENSRTCMIATISPGMASCENTLNTLRYANRVKELTVDPTAAGDVRPIMHHPPNQIDDLETQWGVGSSPQRDDLKLLCEQNEEEVSPQLFTFHEAVSQMVEMEEQVVEDHRAVFQESIRWLEDEKALLEMTEEVDYDVDSYATQLEAILEQKIDILTELRDKVKSFRAALQEEEQASKQINPKRPRAL [KIF2A] | 50 °C | 50.1 °C | -0.0102 | 1.7 | 1.64 | -0.149 |
| MATATEQWVLVEMVQALYEAPAYHLILEGILILWIIRLLFSKTYKLQERSDLTVKEKEELIEEWQPEPLVPPVPKDHPALNYNIVSGPPSHKTVVNGKECINFASFNFLGLLDNPRVKAAALASLKKYGVGTCGPRGFYGTFDVHLDLEDRLAKFMKTEEAIIYSYGFATIASAIPAYSKRGDIVFVDRAACFAIQKGLQASRSDIKLFKHNDMADLERLLKEQEIEDQKNPRKARVTRRFIVVEGLYMNTGTICPLPELVKLKYKYKARIFLEESLSFGVLGEHGRGVTEHYGINIDDIDLISANMENALASIGGFCCGRSFVIDHQRLSGQGYCFSASLPPLLAAAAIEALNIMEENPGIFAVLKEKCGQIHKALQGISGLKVVGESLSPAFHLQLEESTGSREQDVRLLQEIVDQCMNRSIALTQARYLEKEEKCLPPPSIRVVVTVEQTEEELERAASTIKEVAQAVLL [SPTLC1] | 51.5 °C | 52 °C | -0.06 | 0.272 | -0.0699 | -0.0163 |
| MATATIALQVNGQQGGGSEPAAAAAVVAAGDKWKPPQGTDSIKMENGQSTAAKLGLPPLTPEQQEALQKAKKYAMEQSIKSVLVKQTIAHQQQQLTNLQMAAVTMGFGDPLSPLQSMAAQRQRALAIMCRVYVGSIYYELGEDTIRQAFAPFGPIKSIDMSWDSVTMKHKGFAFVEYEVPEAAQLALEQMNSVMLGGRNIKVGRPSNIGQAQPIIDQLAEEARAFNRIYVASVHQDLSDDDIKSVFEAFGKIKSCTLARDPTTGKHKGYGFIEYEKAQSSQDAVSSMNLFDLGGQYLRVGKAVTPPMPLLTPATPGGLPPAAAVAAAAATAKITAQEAVAGAAVLGTLGTPGLVSPALTLAQPLGTLPQAVMAAQAPGVITGVTPARPPIPVTIPSVGVVNPILASPPTLGLLEPKKEKEEEELFPESERPEMLSEQEHMSISGSSARHMVMQKLLRKQESTVMVLRNMVDPKDIDDDLEGEVTEECGKFGAVNRVIIYQEKQGEEEDAEIIVKIFVEFSIASETHKAIQALNGRWFAGRKVVAEVYDQERFDNSDLSA [PUF60] | 49.1 °C | 50.6 °C | 0.0253 | 1.71 | 5.96 | 0.0524 |
| MATCIWLRSCGARRLGSTFPGCRLRPRAGGLVPASGPAPGPAQLRCYAGRLAGLSAALLRTDSFVGGRWLPAAATFPVQDPASGAALGMVADCGVREARAAVRAAYEAFCRWREVSAKERSSLLRKWYNLMIQNKDDLARIITAESGKPLKEAHGEILYSAFFLEWFSEEARRVYGDIIHTPAKDRRALVLKQPIGVAAVITPWNFPSAMITRKVGAALAAGCTVVVKPAEDTPFSALALAELASQAGIPSGVYNVIPCSRKNAKEVGEAICTDPLVSKISFTGSTTTGKILLHHAANSVKRVSMELGGLAPFIVFDSANVDQAVAGAMASKFRNTGQTCVCSNQFLVQRGIHDAFVKAFAEAMKKNLRVGNGFEEGTTQGPLINEKAVEKVEKQVNDAVSKGATVVTGGKRHQLGKNFFEPTLLCNVTQDMLCTHEETFGPLAPVIKFDTEEEAIAIANAADVGLAGYFYSQDPAQIWRVAEQLEVGMVGVNEGLISSVECPFGGVKQSGLGREGSKYGIDEYLELKYVCYGGL [ALDH5A1] | 56.1 °C | 54.8 °C | -0.0409 | 1.08 | 0.0757 | 0.125 |
| MATDTSQGELVHPKALPLIVGAQLIHADKLGEKVEDSTMPIRRTVNSTRETPPKSKLAEGEEEKPEPDISSEESVSTVEEQENETPPATSSEAEQPKGEPENEEKEENKSSEETKKDEKDQSKEKEKKVKKTIPSWATLSASQLARAQKQTPMASSPRPKMDAILTEAIKACFQKSGASVVAIRKYIIHKYPSLELERRGYLLKQALKRELNRGVIKQVKGKGASGSFVVVQKSRKTPQKSRNRKNRSSAVDPEPQVKLEDVLPLAFTRLCEPKEASYSLIRKYVSQYYPKLRVDIRPQLLKNALQRAVERGQLEQITGKGASGTFQLKKSGEKPLLGGSLMEYAILSAIAAMNEPKTCSTTALKKYVLENHPGTNSNYQMHLLKKTLQKCEKNGWMEQISGKGFSGTFQLCFPYYPSPGVLFPKKEPDDSRDEDEDEDESSEEDSEDEEPPPKRRLQKKTPAKSPGKAASVKQRGSKPAPKVSAAQRGKARPLPKKAPPKAKTPAKKTRPSSTVIKKPSGGSSKKPATSARKEVKLPGKGKSTMKKSFRVKK [HP1BP3] | 51.8 °C | 51.5 °C | 0.474 | 0.824 | 0.423 | -1.01 |
| MATKIDKEACRAAYNLVRDDGSAVIWVTFKYDGSTIVPGEQGAEYQHFIQQCTDDVRLFAFVRFTTGDAMSKRSKFALITWIGENVSGLQRAKTGTDKTLVKEVVQNFAKEFVISDRKELEEDFIKSELKKAGGANYDAQTE [COTL1] | 52.4 °C | 52.8 °C | 0.0356 | 3.44 | 1.43 | 0.108 |
| MATKTAGVGRWEVVKKGRRPGVGAGAGGRGGGRNRRALGEANGVWKYDLTPAIQTTSTLYERGFENIMKRQNKEQVPPPAVEPKKPGNKKQPKKVATPPNQNQKQGRFRSLEEALKALDVADLQKELDKSQSVFSGNPSIWLKDLASYLNYKLQAPLSEPTLSQHTHDYPYSLVSRELRGIIRGLLAKAAGSLELFFDHCLFTMLQELDKTPGESLHGYRICIQAILQDKPKIATANLGKFLELLRSHQSRPAKCLTIMWALGQAGFANLTEGLKVWLGIMLPVLGIKSLSPFAITYLDRLLLMHPNLTKGFGMIGPKDFFPLLDFAYMPNNSLTPSLQEQLCQLYPRLKVLAFGAKPDSTLHTYFPSFLSRATPSCPPEMKKELLSSLTECLTVDPLSASVWRQLYPKHLSQSSLLLEHLLSSWEQIPKKVQKSLQETIQSLKLTNQELLRKGSSNNQDVVTCDMACKGLLQQVQGPRLPWTRLLLLLLVFAVGFLCHDLRSHSSFQASLTGRLLRSSGFLPASQQACAKLYSYSLQGYSWLGETLPLWGSHLLTVVRPSLQLAWAHTNATVSFLSAHCASHLAWFGDSLTSLSQRLQIQLPDSVNQLLRYLRELPLLFHQNVLLPLWHLLLEALAWAQEHCHEACRGEVTWDCMKTQLSEAVHWTWLCLQDITVAFLDWALALISQQ [TMEM214] | 51.1 °C | 49.8 °C | 0.000207 | -1.35 | -0.782 | -0.173 |
